Numbering of substitutions follows the chain as printed. Names may count otherwise.
T1: human FcγRIIb extracellular domain, His-tagged (human, UniProt P31994 43-217)
T1 construct: also called FcgRIIb (human)
T1 sequence: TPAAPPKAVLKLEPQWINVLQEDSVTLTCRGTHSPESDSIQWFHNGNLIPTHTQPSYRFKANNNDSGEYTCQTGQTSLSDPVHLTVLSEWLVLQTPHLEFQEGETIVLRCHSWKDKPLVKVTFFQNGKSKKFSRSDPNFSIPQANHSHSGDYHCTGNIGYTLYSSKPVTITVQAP

T2: cynomolgus monkey FcγRIIIaS extracellular domain, His-tagged (cynomolgus monkey, UniProt Q8SPW2 21-206 at identity 1.00))
T2 construct: also called cyno FcγRIIIaS; cynoFcγRIIIaS
T2 chain: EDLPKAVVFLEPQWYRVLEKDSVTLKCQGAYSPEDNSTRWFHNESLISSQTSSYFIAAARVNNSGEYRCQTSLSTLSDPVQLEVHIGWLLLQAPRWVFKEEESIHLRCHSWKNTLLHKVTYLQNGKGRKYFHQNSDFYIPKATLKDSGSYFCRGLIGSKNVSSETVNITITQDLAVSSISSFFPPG

T3: cynomolgus monkey FcγRIIb extracellular domain, His-tagged (cynomolgus monkey)
T3 construct: also called cyno FcγRIIb; cynoFcγRIIb
T3 chain: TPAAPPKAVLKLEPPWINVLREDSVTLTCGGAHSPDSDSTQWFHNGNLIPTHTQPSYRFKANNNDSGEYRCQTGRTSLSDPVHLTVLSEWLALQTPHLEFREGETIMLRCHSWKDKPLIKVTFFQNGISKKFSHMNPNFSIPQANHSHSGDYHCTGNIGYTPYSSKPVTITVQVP

T4: human FcγRIIaR extracellular domain, His-tagged (human, UniProt P12318 34-217)
T4 construct: also called human FcγRIIa (type R); FcgRIIaR
T4 chain: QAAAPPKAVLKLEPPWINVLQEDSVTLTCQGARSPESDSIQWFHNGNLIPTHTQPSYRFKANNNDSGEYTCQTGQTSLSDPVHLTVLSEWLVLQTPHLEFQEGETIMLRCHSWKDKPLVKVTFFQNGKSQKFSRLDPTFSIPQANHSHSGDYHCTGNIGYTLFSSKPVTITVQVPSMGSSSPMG

T5: human FcγRIIaH extracellular domain, His-tagged (human, UniProt P12318 34-217)
T5 construct: also called human FcγRIIa (type H); FcgRIIaH
T5 sequence: T4 chain with R134H

T6: cynomolgus monkey FcγRIIa3 extracellular domain, His-tagged (cynomolgus monkey)
T6 construct: also called cyno FcγRIIa3; cynoFcgRIIa3
T6 chain: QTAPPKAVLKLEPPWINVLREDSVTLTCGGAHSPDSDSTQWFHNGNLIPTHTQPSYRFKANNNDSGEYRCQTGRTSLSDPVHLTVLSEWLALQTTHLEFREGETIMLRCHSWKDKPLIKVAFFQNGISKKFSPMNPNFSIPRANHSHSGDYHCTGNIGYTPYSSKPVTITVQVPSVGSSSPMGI

T7: cynomolgus monkey FcγRIIa2 extracellular domain, His-tagged (cynomolgus monkey)
T7 construct: also called cyno FcγRIIa2; cynoFcgRIIa2
T7 chain: T6 chain with I127K, K130N, P133H, R142Q

T8: cynomolgus monkey FcγRIIa1 extracellular domain, His-tagged (cynomolgus monkey)
T8 construct: also called cyno FcγRIIa1; cynoFcgRIIa1
T8 chain: T6 chain with T95P, A121T, S128A, P133H, N135D

B1: M103205H795-MY041/M103202L889-SK1 (antibody, human IgG1, kappa)
heavy: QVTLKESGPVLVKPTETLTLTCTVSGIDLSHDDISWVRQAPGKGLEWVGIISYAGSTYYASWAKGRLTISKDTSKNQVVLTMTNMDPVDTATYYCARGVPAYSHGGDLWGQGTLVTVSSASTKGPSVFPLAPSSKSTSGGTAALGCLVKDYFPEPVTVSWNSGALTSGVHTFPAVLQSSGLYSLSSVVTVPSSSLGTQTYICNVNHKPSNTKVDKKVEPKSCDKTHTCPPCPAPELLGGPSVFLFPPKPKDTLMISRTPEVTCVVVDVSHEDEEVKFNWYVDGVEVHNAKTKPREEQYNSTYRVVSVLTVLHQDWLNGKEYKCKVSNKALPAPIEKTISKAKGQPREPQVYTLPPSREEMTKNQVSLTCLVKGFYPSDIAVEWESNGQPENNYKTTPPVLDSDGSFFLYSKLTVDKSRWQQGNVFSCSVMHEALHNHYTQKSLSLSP
light: DIVMTQSPATLSLSPGERATLSCTSSQSVYHANWLSWFQQKPGQPPKLLIYWASTLAYGVPSRFSGSGSGTDFTLTISSLQPEDAATYYCAGGYGGGRYAFGQGTKVEIKRTVAAPSVFIFPPSDEQLKSGTASVVCLLNNFYPREAKVQWKVDNALQSGNSQESVTEQDSKDSTYSLSSTLTLSKADYEKHKVYACEVTHQGLSSPVTKSFNRGEC
notes: Substitution put into M103205H795-SG1
B2: M103205H795-MY065/M103202L889-SK1 (antibody, human IgG1, kappa)
heavy: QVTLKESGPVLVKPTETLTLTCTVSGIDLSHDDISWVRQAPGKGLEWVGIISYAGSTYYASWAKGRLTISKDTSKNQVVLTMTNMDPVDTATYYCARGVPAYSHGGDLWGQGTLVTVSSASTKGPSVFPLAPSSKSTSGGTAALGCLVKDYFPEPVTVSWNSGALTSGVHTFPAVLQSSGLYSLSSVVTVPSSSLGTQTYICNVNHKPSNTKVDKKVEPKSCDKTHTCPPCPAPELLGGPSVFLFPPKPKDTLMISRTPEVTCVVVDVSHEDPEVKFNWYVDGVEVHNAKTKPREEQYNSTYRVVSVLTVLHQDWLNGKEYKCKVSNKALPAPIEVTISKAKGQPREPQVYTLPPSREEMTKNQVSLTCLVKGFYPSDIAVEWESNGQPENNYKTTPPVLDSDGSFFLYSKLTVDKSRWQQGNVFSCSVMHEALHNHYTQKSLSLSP
light: B1 light
notes: as for B1
B3: M103205H795-MY044/M103202L889-SK1 (antibody, human IgG1, kappa)
heavy: not shown
light: B1 light
notes: as for B1
B4: M103205H795-MY072/M103202L889-SK1 (antibody, human IgG1, kappa)
heavy: not shown
light: B1 light
notes: as for B1
B5: M103205H795-MY124/M103202L889-SK1 (antibody, human IgG1, kappa)
heavy: not shown
light: B1 light
notes: as for B1
B6: M103205H795-MY070/M103202L889-SK1 (antibody, human IgG1, kappa)
heavy: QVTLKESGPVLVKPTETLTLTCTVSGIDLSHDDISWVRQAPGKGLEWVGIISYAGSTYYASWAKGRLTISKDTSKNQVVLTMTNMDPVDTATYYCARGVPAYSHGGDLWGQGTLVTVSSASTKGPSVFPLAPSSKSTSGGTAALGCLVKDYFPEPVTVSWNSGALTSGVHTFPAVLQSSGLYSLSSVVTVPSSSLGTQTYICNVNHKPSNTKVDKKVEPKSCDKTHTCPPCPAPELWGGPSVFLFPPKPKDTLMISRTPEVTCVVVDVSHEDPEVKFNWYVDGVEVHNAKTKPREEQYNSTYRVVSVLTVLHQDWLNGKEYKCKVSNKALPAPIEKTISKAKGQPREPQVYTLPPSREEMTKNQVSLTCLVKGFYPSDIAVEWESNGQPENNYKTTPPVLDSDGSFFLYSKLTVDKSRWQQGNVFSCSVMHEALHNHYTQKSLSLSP
light: B1 light
notes: as for B1
B7: M103205H795-MY064/M103202L889-SK1 (antibody, human IgG1, kappa)
heavy: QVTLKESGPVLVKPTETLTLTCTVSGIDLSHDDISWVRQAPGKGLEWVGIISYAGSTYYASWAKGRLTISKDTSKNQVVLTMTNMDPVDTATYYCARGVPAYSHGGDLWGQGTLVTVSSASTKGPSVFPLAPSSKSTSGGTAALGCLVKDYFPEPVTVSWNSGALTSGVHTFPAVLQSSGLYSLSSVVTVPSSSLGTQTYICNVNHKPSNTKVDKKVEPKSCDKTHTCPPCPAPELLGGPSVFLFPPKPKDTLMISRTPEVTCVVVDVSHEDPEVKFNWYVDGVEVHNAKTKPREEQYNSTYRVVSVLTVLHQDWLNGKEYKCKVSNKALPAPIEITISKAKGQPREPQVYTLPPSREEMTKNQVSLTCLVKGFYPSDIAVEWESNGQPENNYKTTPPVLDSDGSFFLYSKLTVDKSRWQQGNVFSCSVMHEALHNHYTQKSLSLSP
light: B1 light
notes: as for B1
B8: M103205H795-MY043/M103202L889-SK1 (antibody, human IgG1, kappa)
heavy: not shown
light: B1 light
notes: as for B1
B9: M103205H795-MY069/M103202L889-SK1 (antibody, human IgG1, kappa)
heavy: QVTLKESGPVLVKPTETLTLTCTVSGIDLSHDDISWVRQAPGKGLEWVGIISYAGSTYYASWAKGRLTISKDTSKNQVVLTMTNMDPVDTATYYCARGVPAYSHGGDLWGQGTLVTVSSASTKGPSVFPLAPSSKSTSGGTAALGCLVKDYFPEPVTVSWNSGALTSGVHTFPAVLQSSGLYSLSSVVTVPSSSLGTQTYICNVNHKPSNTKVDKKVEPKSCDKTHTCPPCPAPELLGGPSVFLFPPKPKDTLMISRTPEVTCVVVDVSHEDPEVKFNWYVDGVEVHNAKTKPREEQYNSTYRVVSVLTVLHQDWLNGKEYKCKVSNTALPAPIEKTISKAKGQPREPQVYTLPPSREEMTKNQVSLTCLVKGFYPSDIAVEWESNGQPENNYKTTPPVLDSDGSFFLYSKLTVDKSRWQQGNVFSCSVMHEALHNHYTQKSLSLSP
light: B1 light
notes: as for B1
B10: M103205H795-MY048/M103202L889-SK1 (P271D) (antibody, human IgG1, kappa)
heavy: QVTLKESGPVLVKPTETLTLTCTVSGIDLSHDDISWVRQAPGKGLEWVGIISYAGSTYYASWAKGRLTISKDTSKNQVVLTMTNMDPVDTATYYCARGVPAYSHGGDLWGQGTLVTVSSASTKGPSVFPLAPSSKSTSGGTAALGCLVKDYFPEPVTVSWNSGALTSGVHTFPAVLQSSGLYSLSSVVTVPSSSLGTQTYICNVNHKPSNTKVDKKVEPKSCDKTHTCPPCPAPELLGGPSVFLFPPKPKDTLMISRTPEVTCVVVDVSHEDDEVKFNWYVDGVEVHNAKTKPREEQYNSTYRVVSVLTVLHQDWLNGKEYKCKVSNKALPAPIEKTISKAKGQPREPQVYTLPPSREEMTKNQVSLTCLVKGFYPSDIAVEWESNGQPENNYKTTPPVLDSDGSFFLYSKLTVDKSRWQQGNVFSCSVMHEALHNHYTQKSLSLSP
light: B1 light
notes: Here the P271D molecule is meant; Put into M103205H795-SG1
B11: M103205H795-MY068/M103202L889-SK1 (antibody, human IgG1, kappa)
heavy: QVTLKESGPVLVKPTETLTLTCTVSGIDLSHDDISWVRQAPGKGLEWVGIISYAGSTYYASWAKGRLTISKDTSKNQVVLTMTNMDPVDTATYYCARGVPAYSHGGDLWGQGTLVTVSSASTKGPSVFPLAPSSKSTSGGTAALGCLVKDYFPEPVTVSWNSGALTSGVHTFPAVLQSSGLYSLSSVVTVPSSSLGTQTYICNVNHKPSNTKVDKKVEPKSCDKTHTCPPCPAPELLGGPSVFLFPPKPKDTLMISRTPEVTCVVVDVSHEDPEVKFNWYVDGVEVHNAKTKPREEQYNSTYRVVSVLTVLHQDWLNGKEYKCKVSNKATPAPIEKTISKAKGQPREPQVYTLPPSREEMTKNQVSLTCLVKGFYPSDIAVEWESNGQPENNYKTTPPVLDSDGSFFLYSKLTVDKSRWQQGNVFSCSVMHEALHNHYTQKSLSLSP
light: B1 light
notes: as for B1
B12: M103205H795-MY073/M103202L889-SK1 (antibody, human IgG1, kappa)
heavy: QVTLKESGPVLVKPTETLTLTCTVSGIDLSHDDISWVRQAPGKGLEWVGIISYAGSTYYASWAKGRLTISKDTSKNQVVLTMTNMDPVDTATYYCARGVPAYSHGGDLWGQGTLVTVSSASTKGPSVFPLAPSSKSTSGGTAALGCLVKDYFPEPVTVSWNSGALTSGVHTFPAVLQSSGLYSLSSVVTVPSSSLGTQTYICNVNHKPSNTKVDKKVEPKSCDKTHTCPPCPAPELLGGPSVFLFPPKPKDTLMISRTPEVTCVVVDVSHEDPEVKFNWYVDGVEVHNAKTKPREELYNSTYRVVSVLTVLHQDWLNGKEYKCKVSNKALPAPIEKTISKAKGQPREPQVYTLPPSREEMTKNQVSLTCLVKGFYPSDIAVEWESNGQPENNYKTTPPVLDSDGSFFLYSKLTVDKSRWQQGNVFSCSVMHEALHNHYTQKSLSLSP
light: B1 light
notes: as for B1
B13: M103205H795-MY045/M103202L889-SK1 (antibody, human IgG1, kappa)
heavy: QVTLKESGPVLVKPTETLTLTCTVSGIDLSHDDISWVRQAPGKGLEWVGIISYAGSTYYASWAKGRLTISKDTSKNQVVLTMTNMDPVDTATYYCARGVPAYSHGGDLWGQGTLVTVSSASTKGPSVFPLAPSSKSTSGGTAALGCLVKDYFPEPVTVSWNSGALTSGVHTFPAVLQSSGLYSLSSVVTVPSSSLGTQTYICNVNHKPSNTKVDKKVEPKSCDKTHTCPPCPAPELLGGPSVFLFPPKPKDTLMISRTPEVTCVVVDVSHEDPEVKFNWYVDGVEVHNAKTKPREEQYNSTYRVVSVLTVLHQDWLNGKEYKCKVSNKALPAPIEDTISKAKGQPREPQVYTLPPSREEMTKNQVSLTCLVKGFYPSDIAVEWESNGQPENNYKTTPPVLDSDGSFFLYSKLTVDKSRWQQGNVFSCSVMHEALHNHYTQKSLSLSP
light: B1 light
notes: as for B1
B14: M103205H795-MY063/M103202L889-SK1 (antibody, human IgG1, kappa)
heavy: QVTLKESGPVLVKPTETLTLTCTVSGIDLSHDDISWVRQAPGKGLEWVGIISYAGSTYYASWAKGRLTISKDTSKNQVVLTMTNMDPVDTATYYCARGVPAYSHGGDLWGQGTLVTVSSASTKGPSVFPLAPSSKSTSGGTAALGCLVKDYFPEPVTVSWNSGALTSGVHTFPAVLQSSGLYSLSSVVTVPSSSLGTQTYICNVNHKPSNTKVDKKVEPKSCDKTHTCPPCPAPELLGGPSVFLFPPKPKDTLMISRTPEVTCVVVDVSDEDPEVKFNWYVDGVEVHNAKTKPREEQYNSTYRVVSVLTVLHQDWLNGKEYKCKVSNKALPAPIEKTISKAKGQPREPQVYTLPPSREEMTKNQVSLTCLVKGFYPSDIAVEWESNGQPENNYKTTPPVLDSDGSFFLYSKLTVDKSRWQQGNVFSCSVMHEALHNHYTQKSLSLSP
light: B1 light
notes: as for B1
B15: M103205H795-MY071/M103202L889-SK1 (antibody, human IgG1, kappa)
heavy: not shown
light: B1 light
notes: as for B1

Molecular target: T1, human FcγRIIb extracellular domain, …
Experiment: SPR; KD of SG1 / KD of variant;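 further: relative to parent M103205H795-SG1 carrying the SG1 human heavy chain constant region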

| KD fold (SG1 = 1) [fold] | Binder |
| --- | --- |
| 1.6 | B1 |
| 2.4 | B2 |
| 1.4 | B3 |
| 3.1 | B4 |
| 0.5 | B5 |
| 1.8 | B6 |
| 1.9 | B7 |
| 1.5 | B8 |
| 2.9 | B9 |
| 1.5 | B10 |
| 2.7 | B11 |
| 2.3 | B12 |
| 1.6 | B13 |
| 7 | B14 |
| 1.9 | B15 |

Molecular target: T2, cynomolgus monkey FcγRIIIaS …
Experiment: SPR; KD of SG1 / KD of variant;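 further: relative to parent M103205H795-SG1 carrying the SG1 human heavy chain constant region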

| KD fold (SG1 = 1) [fold] | Binder |
| --- | --- |
| 1.38 | B1 |
| 3.27 | B2 |
| 0.77 | B3 |
| 6.79 | B4 |
| 0.28 | B5 |
| 0.73 | B6 |
| 3 | B7 |
| 0.43 | B8 |
| 4.19 | B9 |
| 0.97 | B10 |
| 0.67 | B11 |
| 2.12 | B12 |
| 2.57 | B13 |
| 5.37 | B14 |
| 1.29 | B15 |

Molecular target: T3, cynomolgus monkey FcγRIIb extracellular …
Experiment: SPR; KD of SG1 / KD of variant;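 further: relative to parent M103205H795-SG1 carrying the SG1 human heavy chain constant region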

| KD fold (SG1 = 1) [fold] | Binder |
| --- | --- |
| 0.5 | B1 |
| 1.4 | B2 |
| 1.1 | B3 |
| 3.8 | B4 |
| 0.8 | B5 |
| 1.5 | B6 |
| 1.6 | B7 |
| 0.4 | B8 |
| 2.5 | B9 |
| 0.5 | B10 |
| 1.8 | B11 |
| 2.7 | B12 |
| 0.8 | B13 |
| 5.3 | B14 |
| 0.7 | B15 |

Molecular target: T9, human FcγRIIIaV extracellular domain, His-tagged (human, UniProt P08637 17-208)
T9 construct: also called FcgRIIIaV
T9 sequence (P08637 17-208 F176V): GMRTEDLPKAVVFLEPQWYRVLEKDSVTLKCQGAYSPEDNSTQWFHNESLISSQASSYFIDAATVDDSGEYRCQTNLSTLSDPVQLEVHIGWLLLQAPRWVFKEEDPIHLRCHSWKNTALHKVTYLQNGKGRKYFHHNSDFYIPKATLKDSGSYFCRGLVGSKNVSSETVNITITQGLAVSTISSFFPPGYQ
Experiment: SPR; KD of SG1 / KD of variant;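 further: relative to parent M103205H795-SG1 carrying the SG1 human heavy chain constant region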

| KD fold (SG1 = 1) [fold] | Binder |
| --- | --- |
| 1.69 | B1 |
| 3.52 | B2 |
| 0.9 | B3 |
| 6.75 | B4 |
| 0.16 | B5 |
| 1.16 | B6 |
| 3.68 | B7 |
| 0.68 | B8 |
| 3.38 | B9 |
| 1.33 | B10 |
| 0.58 | B11 |
| 2.38 | B12 |
| 3.38 | B13 |
| 5.06 | B14 |
| 1.59 | B15 |

Molecular target: T4, human FcγRIIaR extracellular domain, …
Experiment: SPR; KD of SG1 / KD of variant

| KD fold (SG1 = 1) [fold] | Binder |
| --- | --- |
| 0.9 | B1 |
| 2.2 | B2 |
| 1.2 | B3 |
| 2.3 | B4 |
| 2.1 | B5 |
| 1.5 | B6 |
| 1.6 | B7 |
| 0.7 | B8 |
| 2.8 | B9 |
| 0.5 | B10 |
| 2.1 | B11 |
| 2.2 | B12 |
| 0.7 | B13 |
| 5.2 | B14 |
| 2.4 | B15 |

Molecular target: T5, human FcγRIIaH extracellular domain, …
Experiment: SPR; KD of SG1 / KD of variant

| KD fold (SG1 = 1) [fold] | Binder |
| --- | --- |
| 0.4 | B1 |
| 1.3 | B2 |
| 0.6 | B3 |
| 2.8 | B4 |
| 4.9 | B5 |
| 1.4 | B6 |
| 1.4 | B7 |
| 0.2 | B8 |
| 1.6 | B9 |
| 0.4 | B10 |
| 1.9 | B11 |
| 2.9 | B12 |
| 0.4 | B13 |
| 2.6 | B14 |
| 1.7 | B15 |

Molecular target: T6, cynomolgus monkey FcγRIIa3 …
Experiment: SPR; KD of SG1 / KD of variant

| KD fold (SG1 = 1) [fold] | Binder |
| --- | --- |
| 2.3 | B1 |
| 4 | B2 |
| 0.3 | B3 |
| 6.5 | B4 |
| 1.4 | B5 |
| 3.6 | B6 |
| 2.5 | B7 |
| 0.9 | B8 |
| 2.6 | B9 |
| 3.5 | B10 |
| 3 | B11 |
| 3.3 | B12 |
| 2.5 | B13 |
| 8.5 | B14 |
| 1.5 | B15 |

Molecular target: T7, cynomolgus monkey FcγRIIa2 …
Experiment: SPR; KD of SG1 / KD of variant

| KD fold (SG1 = 1) [fold] | Binder |
| --- | --- |
| 1.2 | B1 |
| 1.8 | B2 |
| 1.5 | B3 |
| 4.3 | B4 |
| 1.6 | B5 |
| 1.8 | B6 |
| 2 | B7 |
| 0.1 | B8 |
| 3.2 | B9 |
| 0.5 | B10 |
| 1.9 | B11 |
| 8.9 | B12 |
| 1.3 | B13 |
| 3.4 | B14 |
| 1.4 | B15 |

Molecular target: T8, cynomolgus monkey FcγRIIa1 …
Experiment: SPR; KD of SG1 / KD of variant

| KD fold (SG1 = 1) [fold] | Binder |
| --- | --- |
| 0.8 | B1 |
| 1.4 | B2 |
| 1 | B3 |
| 3.2 | B4 |
| 1.7 | B5 |
| 1.4 | B6 |
| 1.3 | B7 |
| 0.6 | B8 |
| 2 | B9 |
| 0.6 | B10 |
| 1.5 | B11 |
| 2.7 | B12 |
| 0.6 | B13 |
| 2.3 | B14 |
| 0.6 | B15 |
